Consider two substances from paper PMC2787765.

This assay has as its target αB-crystallin triply substituted analog (serine residues 19, 45 and 59 mutated to aspartic acids) (UniProt P02511). Kind of assay: back-scattering interferometry.

For the substance “T4 lysozyme D70N (from UniProt P00720 1-164) (enzyme)”, the KD1 (high affinity mode) is 0.595 µM; the KD2 (low affinity mode) was 29.1 µM; the kf1 (forward rate, high affinity mode) came to 25500 M⁻¹ s⁻¹; the kf2 (forward rate, low affinity mode) is 2340 M⁻¹ s⁻¹. The substance further displayed a kr1 (reverse rate, high affinity mode) of 0.0152 s⁻¹ and a reduction in magnitude of the steady-state BSI signal relative to T4L-L99A-A130S of 40%.
For the substance “T4 lysozyme L99A-A130S double mutant (from UniProt P00720 1-164) (enzyme)”, the KD1 (high affinity mode) stood at 0.132 µM; the KD2 (low affinity mode) was found to be 33 µM; the kf1 (forward rate, high affinity mode) was 58500 M⁻¹ s⁻¹; the kf2 (forward rate, low affinity mode) was found to be 2970 M⁻¹ s⁻¹. The substance also yielded a kr1 (reverse rate, high affinity mode) of 5.03e-06 s⁻¹ and a reverse rate, low affinity mode (row printed as kr1) of 0.115 s⁻¹.
